Test [1] has as its target T1, peptide 39 (FIGURE 3 d/e).
T1 peptide: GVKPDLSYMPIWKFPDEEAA
In words: peptide array on cellulose membrane, double-alanine substitution series, signal intensity (area under curve), duplicate spots.

Test [2] concerns the target T2, peptide 32 (FIGURE 3 d/e).
T2 construct: marked WK under the bar
T2 peptide: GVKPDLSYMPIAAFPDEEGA
The test is described as above.

Test [3] addresses T3, peptide 33 (FIGURE 3 d/e).
T3 construct: marked KF under the bar
T3 peptide: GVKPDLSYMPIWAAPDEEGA
The test is described as above.

Test [4] deals with T4, peptide 26 (FIGURE 3 d/e).
T4 peptide: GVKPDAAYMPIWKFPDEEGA
Described as above.

The target in test [5] is T5, peptide 35 (FIGURE 3 d/e).
T5 construct: marked PD under the bar
T5 peptide: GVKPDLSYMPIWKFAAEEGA
The description is as above.

Test [6] concerns the target T6, peptide 25 (FIGURE 3 d/e).
T6 peptide: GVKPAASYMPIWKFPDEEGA
Described as above.

In test [7] the target is T7, peptide 21 (FIGURE 3 d/e).
T7 peptide: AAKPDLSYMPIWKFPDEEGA
Described as above.

The target of test [8] is T8, peptide 22 (FIGURE 3 d/e).
T8 peptide: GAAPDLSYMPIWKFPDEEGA
The test is described as above.

The target of test [9] is T9, peptide 23 (FIGURE 3 d/e).
T9 peptide: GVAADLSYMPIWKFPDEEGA
The test is described as above.

Test [10] addresses T10, peptide 28 (FIGURE 3 d/e).
T10 peptide: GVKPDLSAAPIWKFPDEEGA
Described as above.

The target of test [11] is T11, peptide 31 (FIGURE 3 d/e).
T11 construct: marked IW under the bar
T11 peptide: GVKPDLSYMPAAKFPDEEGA
The test is described as above.

For test [12], the target named is T12, peptide 24 (FIGURE 3 d/e).
T12 peptide: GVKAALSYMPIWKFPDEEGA
The test is described as above.

Test [13] addresses T13, peptide 34 (FIGURE 3 d/e).
T13 construct: marked FP under the bar
T13 peptide: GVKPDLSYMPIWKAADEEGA
The test is described as above.

For test [14], the target named is T14, peptide 30 (FIGURE 3 d/e).
T14 construct: marked PI under the bar
T14 peptide: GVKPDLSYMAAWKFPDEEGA
The description is as above.

Test [15] deals with T15, peptide 29 (FIGURE 3 d/e).
T15 construct: marked MP under the bar
T15 peptide: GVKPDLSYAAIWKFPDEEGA
The description is as above.

Test [16] deals with T16, peptide 27 (FIGURE 3 d/e).
T16 peptide: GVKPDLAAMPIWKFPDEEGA
Described as above.

Test [17] deals with T17, peptide 38 (FIGURE 3 d/e).
T17 peptide: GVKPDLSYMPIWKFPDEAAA
The description is as above.

Test [18] addresses T18, peptide 36 (FIGURE 3 d/e).
T18 construct: marked DE under the bar
T18 peptide: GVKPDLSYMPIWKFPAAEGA
The description is as above.

Test [19] has as its target T19, extracellular domain of p95HER2 peptide with a polyhistidine-tag in the C-terminus.
T19 construct: Used as analyte in SPR
Put plainly: SPR (Biacore T200, 25° C.), antibody immobilized on CM5 chip, peptide as analyte 0.6 to 2500 nM, 1:1 model. How it is done:
SPR was performed as described previously in Gomes & Andreu, Journal of Immunological Methods 259:217-230, 2002. […] The extracellular domain of p95HER2 peptide with a polyhistidine-tag in the C-terminus (SEQ ID NO: 19) was used as analyte with serial dilutions from 0.6 to 2500 nM. […] (SEQ ID NO: 19)
Kinetics of molecular interaction were processed by global curve fitting to the 1:1 bimolecular interaction model. Biacore T200 (GE Healthcare) was used to perform the experiment and all procedures were conducted at 25° C.
A general note: Surface plasmon resonance follows binding to a sensor surface in real time, without labels.

Test [20] has as its target T20, Peptide 5 of Table 3 (peptide of the p95HER2 extracellular domain).
T20 construct: Synthetic peptide immobilized on a cellulose membrane
T20 peptide: INCTHSCVDLDDKG
Put plainly: peptide array on cellulose membrane, overlapping 15mers, signal intensity (area under curve), triplicate spots.

The target of test [21] is T21, Peptide 4 of Table 3 (15mer of the p95HER2 extracellular domain).
T21 construct: Synthetic peptide immobilized on a cellulose membrane
T21 peptide: CQPCPINCTHSCVDL
Described as above.

In test [22] the target is T22, Peptide 3 of Table 3 (15mer of the p95HER2 extracellular domain).
T22 construct: Synthetic peptide immobilized on a cellulose membrane
T22 peptide: EEGACQPCPINCTHS
The description is as above.

B1: Oslo-2 antibody (monoclonal antibody against p95HER2) (antibody, V domains shown)
VH: EVQILETGGGLVKPGGSLRLSCATSGFNFNDYFMNWVRQAPGKGLEWIAQIRNKNYNYATYFAESLEGRFTISRDDSKSSVYLQVNSLRAEDTALYYCTELRYDYWGQGVMVTVSS
VL: DIVMTQSPFSLAVSEGEMVTINCKSSQSLLSSGNQKNNLAWYQQKPGQSPKLLIYYASTRQSGVPDRFIGSGSGTDFTLTISDVQAEDLADYYCLQHYSSPYTFGAGTKLELK
notes: Monoclonal antibody from a rat hybridoma (mClone 1), detected with goat anti-rat-PE; also called the antibody of interest; the antibody
As for B1, the binding result in [1] is “binds”; in test [2], “no binding”; in test [3], “binds”; in test [4] it was “binds”; in test [5], “binds”; in [6] it was “binds”. The binding result in test [7] was “binds”; in test [8], “binds”; in test [9] it was “binds”; in test [10], “binds”; in [11], “no binding”; in test [12] it was “binds”. The binding result in test [13], in test [14], in test [15], in test [16], in [17] and in test [18] was “binds” throughout. Moreover, the binding result in test [20], in test [21] and in [22] was “no binding” each time. The equilibrium dissociation constant (Kd) in [19] was 2 nM.

In general, Kd refers to the equilibrium constant for the complex coming apart. A lower Kd goes with higher affinity.

For the origin of these results see US20240398949A1 (OSLO UNIVERSITETSSYKEHUS HF, published 2024).
